Several values for one entry are separate records, joined by “and”; a condition that tells them apart may be missing. Equal entries are not always repeated. Where two headings read alike, the source gives them in different places.
Assays:
[1] = molecular target: human βB2-crystallin W196F (human) (UniProt P43320); assay: SEC
[2] = molecular target: human βB2-crystallin W196F (human) (UniProt P43320); assay: AUC
[3] = molecular target: the molecule itself; assay: SEC
[4] = molecular target: the molecule itself; assay: AUC
[5] = molecular target: the molecule itself; assay: SEC; remark: listed apart in the source

Sequence of human βB2-crystallin W196F (P43320 whole entry, stated change not applied): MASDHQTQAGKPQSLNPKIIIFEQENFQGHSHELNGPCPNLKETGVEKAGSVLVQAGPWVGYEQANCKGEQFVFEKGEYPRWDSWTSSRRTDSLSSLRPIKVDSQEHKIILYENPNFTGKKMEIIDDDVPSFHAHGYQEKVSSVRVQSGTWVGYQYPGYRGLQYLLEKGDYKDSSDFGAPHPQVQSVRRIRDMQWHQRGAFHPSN

Row | Molecule | stoichiometry N [1] | % dimer [2] [%] | % tetramer [2] [%] | stoichiometry N [3] | % dimer [4] [%] | % tetramer [4] [%] | stoichiometry N [5]
1 | human βB2-crystallin W196F (from UniProt P43320 1-205) (natural protein) | 4 and 2 | 83.4 | 12.7 |  |  |  | 
2 | human βB2-crystallin W151F (natural protein, UniProt P43320 1-205, looked up) MASDHQTQAGKPQSLNPKIIIFEQENFQGHSHELNGPCPNLKETGVEKAGSVLVQAGPWVGYEQANCKGEQFVFEKGEYPRWDSWTSSRRTDSLSSLRPIKVDSQEHKIILYENPNFTGKKMEIIDDDVPSFHAHGYQEKVSSVRVQSGTFVGYQYPGYRGLQYLLEKGDYKDSSDFGAPHPQVQSVRRIRDMQWHQRGAFHPSN |  |  |  | 2 | 92.2 ± 0.5 | 2.7 ± 0.1 | 
3 | human βB2-crystallin W85F (natural protein, UniProt P43320 1-205, looked up) MASDHQTQAGKPQSLNPKIIIFEQENFQGHSHELNGPCPNLKETGVEKAGSVLVQAGPWVGYEQANCKGEQFVFEKGEYPRWDSFTSSRRTDSLSSLRPIKVDSQEHKIILYENPNFTGKKMEIIDDDVPSFHAHGYQEKVSSVRVQSGTWVGYQYPGYRGLQYLLEKGDYKDSSDFGAPHPQVQSVRRIRDMQWHQRGAFHPSN |  |  |  | 2 and 4 | 79.7 ± 0.6 | 11.5 ± 0.6 | 
4 | human βB2-crystallin W82F (natural protein, UniProt P43320 1-205, looked up) MASDHQTQAGKPQSLNPKIIIFEQENFQGHSHELNGPCPNLKETGVEKAGSVLVQAGPWVGYEQANCKGEQFVFEKGEYPRFDSWTSSRRTDSLSSLRPIKVDSQEHKIILYENPNFTGKKMEIIDDDVPSFHAHGYQEKVSSVRVQSGTWVGYQYPGYRGLQYLLEKGDYKDSSDFGAPHPQVQSVRRIRDMQWHQRGAFHPSN |  |  |  | 2 and 4 | 75.5 ± 0.3 | 22.3 ± 0.2 | 
5 | human βB2-crystallin W59F (natural protein, UniProt P43320 1-205, looked up) MASDHQTQAGKPQSLNPKIIIFEQENFQGHSHELNGPCPNLKETGVEKAGSVLVQAGPFVGYEQANCKGEQFVFEKGEYPRWDSWTSSRRTDSLSSLRPIKVDSQEHKIILYENPNFTGKKMEIIDDDVPSFHAHGYQEKVSSVRVQSGTWVGYQYPGYRGLQYLLEKGDYKDSSDFGAPHPQVQSVRRIRDMQWHQRGAFHPSN |  |  |  | 2 | 48.7 ± 0.3 | 36.1 ± 0.4 | 4
